Among the data in publication PMC6768434 are Km, kcat and kcat/Km values, retold here.

Substrate in this series: CC(NCCCC[C@H](N)C(=O)O)C(=O)O
The experiment in a line: purified protein. The conditions noted are these: 50 mM Tris pH 8.0, 5 μM FAD, 25 μM enzyme, 37 °C, CEL 1-13 mM.

B1: MnmC (Escherichia coli K-12) (protein)
chain: MKHYSIQPANLEFNAEGTPVSRDFDDVYFSNDNGLEETRYVFLGGNQLEVRFPEHPHPLFVVAESGFGTGLNFLTLWQAFDQFREAHPQAQLQRLHFISFEKFPLTRADLALAHQHWPELAPWAEQLQAQWPMPLPGCHRLLLDEGRVTLDLWFGDINELTSQLDDSLNQKVDAWFLDGFAPAKNPDMWTQNLFNAMARLARPGGTLATFTSAGFVRRGLQDAGFTMQKRKGFGRKREMLCGVMEQTLPLPCSAPWFNRTGSSKREAAIIGGGIASALLSLALLRRGWQVTLYCADEAPALGASGNRQGALYPLLSKHDEALNRFFSNAFTFARRFYDQLPVKFDHDWCGVTQLGWDEKSQHKIAQMLSMDLPAELAVAVEANAVEQITGVATNCSGITYPQGGWLCPAELTRNVLELAQQQGLQIYYQYQLQNLSRKDDCWLLNFAGDQQATHSVVVLANGHQISRFSQTSTLPVYSVAGQVSHIPTTPELAELKQVLCYDGYLTPQNPANQHHCIGASYHRGSEDTAYSEDDQQQNRQRLIDCFPQAQWAKEVDVSDKEARCGVRCATRDHLPMVGNVPDYEATLVEYASLAEQKDEAVSAPVFDDLFMFAALGSRGLCSAPLCAEILAAQMSDEPIPMDASTLAALNPNRLWVRKLLKGKAVKAG
On to B1, for which the Michaelis constant (Km) turned out to be 5.2 ± 1.3 mM, the kcat was 0.000667 ± 6.67e-05 s⁻¹ and the kcat/Km is 0.133 ± 0.0167 M⁻¹ s⁻¹.

B2: C-MnmC (Escherichia coli K-12) (protein)
chain: PCSAPWFNRTGSSKREAAIIGGGIASALLSLALLRRGWQVTLYCADEAPALGASGNRQGALYPLLSKHDEALNRFFSNAFTFARRFYDQLPVKFDHDWCGVTQLGWDEKSQHKIAQMLSMDLPAELAVAVEANAVEQITGVATNCSGITYPQGGWLCPAELTRNVLELAQQQGLQIYYQYQLQNLSRKDDCWLLNFAGDQQATHSVVVLANGHQISRFSQTSTLPVYSVAGQVSHIPTTPELAELKQVLCYDGYLTPQNPANQHHCIGASYHRGSEDTAYSEDDQQQNRQRLIDCFPQAQWAKEVDVSDKEARCGVRCATRDHLPMVGNVPDYEATLVEYASLAEQKDEAVSAPVFDDLFMFAALGSRGLCSAPLCAEILAAQMSDEPIPMDASTLAALNPNRLWVRKLLKGKAVKAG
Take B2: the Km was 4.3 ± 0.6 mM, the kcat is 0.003 ± 0.00015 s⁻¹ and the kcat/Km worked out at 0.7 ± 0.1 M⁻¹ s⁻¹.
